Experimental data from US20230176057A1 (CHAN ZUCKERBERG BIOHUB, published 2023).

Target: SARS-CoV-2 nucleocapsid protein (N protein) (SARS-CoV-2, UniProt P0DTC9 1-419)

B1: N-binding clone H2 Fab (Fab, V domains shown)
VH: EVQLVESGGGLVQPGGSLRLSCAASGFNVYSSSIHWVRQAPGKGLEWVASISSYYSYTSYADSVKGRFTISADTSKNTAYLQMNSLRAEDTAVYYCARSYNFSWSGYYGFDYWGQGTLVTVSS
VL: DIQMTQSPSSLSASVGDRVTITCRASQSVSSAVAWYQQKPGKAPKLLIYSASSLYSGVPSRFSGSRSGTDFTLTISSLQPEDFATYYCQQFIQFPITFGQGTKVEIKR
Kd: 20 nM
